Measurements as given in US20250129153A1 (Johns Hopkins, published 2025).

T1: human ZnT8-His (full-length ZnT8, isoform-2, C-terminal His-tag) (human, UniProt Q8IWU4-2 1-320)
T1 construct: mature; Expressed in 293-F cells; Used detergent-solubilized on nickel-coated plates, or purified and reconstituted into DOPC/DOPE/DOPG proteoliposomes (mixed orientations); Described as a homodimer; also called flZnT8; detergent-solubilized ZnT8; not shown: C-terminal His-tag
T1 sequence (looked up): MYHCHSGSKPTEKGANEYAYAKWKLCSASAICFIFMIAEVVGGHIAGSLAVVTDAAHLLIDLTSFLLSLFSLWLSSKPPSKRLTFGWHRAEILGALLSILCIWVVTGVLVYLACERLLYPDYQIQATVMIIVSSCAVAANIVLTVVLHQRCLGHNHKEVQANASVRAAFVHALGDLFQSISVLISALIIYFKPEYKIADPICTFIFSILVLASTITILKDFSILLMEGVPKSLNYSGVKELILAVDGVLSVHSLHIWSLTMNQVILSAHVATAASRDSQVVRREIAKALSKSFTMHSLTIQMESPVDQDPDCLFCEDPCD

T2: mouse ZnT8 (endogenous, in mouse pancreatic islets and β-cells) (mouse, UniProt Q8BGG0 1-367)
T2 construct: whole, on cells
T2 sequence (looked up): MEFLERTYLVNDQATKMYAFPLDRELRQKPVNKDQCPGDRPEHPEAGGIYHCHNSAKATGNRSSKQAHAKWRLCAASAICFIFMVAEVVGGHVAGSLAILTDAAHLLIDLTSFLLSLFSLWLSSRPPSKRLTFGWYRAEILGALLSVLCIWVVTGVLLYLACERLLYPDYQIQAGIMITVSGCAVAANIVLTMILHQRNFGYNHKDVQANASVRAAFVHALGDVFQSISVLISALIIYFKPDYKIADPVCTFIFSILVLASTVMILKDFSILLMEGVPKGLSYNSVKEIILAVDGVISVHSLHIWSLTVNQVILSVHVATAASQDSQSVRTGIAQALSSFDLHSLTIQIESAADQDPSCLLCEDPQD

T3: human ZnT8 (endogenous, in EndoC-βH1 cells and human pancreatic islets) (human, UniProt Q8IWU4 1-369)
T3 sequence: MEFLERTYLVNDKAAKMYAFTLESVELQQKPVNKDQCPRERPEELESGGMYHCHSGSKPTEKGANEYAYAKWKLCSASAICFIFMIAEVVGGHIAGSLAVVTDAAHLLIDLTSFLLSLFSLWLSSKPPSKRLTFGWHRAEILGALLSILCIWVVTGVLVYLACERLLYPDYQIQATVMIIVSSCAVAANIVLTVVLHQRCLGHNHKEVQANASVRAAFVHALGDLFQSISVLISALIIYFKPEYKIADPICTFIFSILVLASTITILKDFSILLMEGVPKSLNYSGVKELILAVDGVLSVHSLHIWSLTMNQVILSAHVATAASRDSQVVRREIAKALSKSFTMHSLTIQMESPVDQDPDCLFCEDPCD

T4: rat ZnT8 (endogenous, in INS-1E cells) (rat, UniProt P0CE46 1-368)
T4 construct: whole, on cells; also called ZnT8 in rodent β-cells
T4 sequence (looked up): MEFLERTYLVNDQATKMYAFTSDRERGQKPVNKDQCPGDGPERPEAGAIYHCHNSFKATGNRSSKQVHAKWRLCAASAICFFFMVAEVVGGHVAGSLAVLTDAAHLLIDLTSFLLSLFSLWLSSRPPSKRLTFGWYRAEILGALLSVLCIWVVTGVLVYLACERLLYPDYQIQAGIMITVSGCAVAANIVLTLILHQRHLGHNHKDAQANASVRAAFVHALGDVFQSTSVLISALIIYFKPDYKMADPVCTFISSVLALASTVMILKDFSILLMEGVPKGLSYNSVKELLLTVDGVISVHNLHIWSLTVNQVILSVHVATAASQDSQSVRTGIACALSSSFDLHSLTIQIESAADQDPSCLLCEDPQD


What was measured:
[1] = target: T1, human ZnT8-His (full-length ZnT8, …); test: ELISA titration to ZnT8 proteoliposomes, hyperbolic fit (printed as binding affinity)
Procedure: (§1) Comparative ELISAs. For proteoliposome-based ELISA, 4 μg proteoliposomes (containing 5% human ZnT8-His by weight) diluted in 100 μl PBS were added to each well of a high-binding 96-well plate, and incubated overnight at 4° C. The passively immobilized proteoliposomes were blocked with 5% BSA, and then tested with hybridoma culture supernatants. For solution-based ELISA, 293-F cells expressing human ZnT8-His or CTD-His were mechanically lysed using a microfluidizer, and cleared of cell debris by ultracentrifugation. Then, 0.2 μg human ZnT8-His from detergent-solubilized cell membrane or 0.1 μg CTD-His from cell lysate in 100 μl PBS were immobilized to each well of a nickel-coated 96-well plate via the C-terminal His-tag. The immobilized protein was blocked by 5% BSA, and then tested with mouse sera in 3-fold serial dilutions or hybridoma culture supernatants. Bound serum antibodies were detected by an HRP-conjugated goat anti-mouse IgG secondary antibody (1:3000) on a Flexstation-3 microplate reader.
Lymphocytes responsible for the production of antibodies to highly conserved epitopes of ZnT8 may be eliminated during the development of self-tolerance that prevents lymphocytes from attacking self-antigens. […]

[2] = target: human CTD-His (cytosolic C-terminal domain of ZnT8, C-terminal His-tag) (human) (UniProt Q8IWU4); test: ELISA, mAb titration on CTD (CTD-His) captured on a plate
[3] = target: T1, human ZnT8-His (full-length ZnT8, …); test: ELISA, mAb titration on detergent-solubilized flZnT8 (ZnT8-His) captured on a plate
Source text: FIGS. 1A-1G show induction of anti-TMD antibodies and biochemical characterization. […] The TMD is imbedded in the lipid bilayer while the CTD is extended into the cytoplasm. […] Error bars are standard errors from 4 ZnT8-KO or 4 NOD mice, *p<0.01 (n=4). […] Note, ZnT8 in proteoliposomes adopted mixed transmembrane orientations exposing either TMD or CTD to antibody binding as indicated. Solid lines are least-square fits of binding curves to a hyperbolic function with r2>0.98.
as §1, with “The immobilized protein was blocked by 5% BSA, and then tested with mouse sera in 3-fold serial dilutions or hybridoma culture supernatants.” left out

[4] = target: T2, mouse ZnT8 (endogenous, in mouse …); test: flow cytometry of live dispersed mouse pancreatic cells, chimeric mAb20 and PE anti-human IgG, DCV gate
Procedure: Tissue dispersion and pancreatic cell labeling. Excised pancreata from C57BL/6 mice were cut into small pieces, minced, and washed with HBSS on a 70-μm strainer to remove hematopoietic cells. The washed tissue pellets were resuspended in accutase and incubated at 37° C. for 30 min. DCV was added to stain DNA of live cells. The dispersed cells were filtrated through the strainer by a gentle spin at 1200 rpm for 2 min. The remaining tissue pellets underwent additional cycles of accutase digestion and cell filtration to achieve a complete cell dispersion. The dispersed cells were pooled and washed with cold cell culture medium with DNase and trypsin/chymotrypsin inhibitors. At this point, cell viability, measured by trypan blue exclusion, was typically over 80%. […] Chimeric mAb20 was used as an isotype control.
Fluorescence activated cell sorting and confocal microscopy analysis. The labeled pancreatic cells were analyzed and sorted immediately on a MoFlo XDP cell sorter (Beckman Coulter) equipped with a 405 and 561 nm laser. Data were collected on forward scatter, side scatter, and 440 nm and 578 nm fluorescence channels. Cells gated on forward and side scatter yielded >1 million single-cell counting events. The sorted cells in R0 or R1 gate were deposited on the glass bottom of a microwell dish by a gentle centrifugation (1200 rpm, 1 min). […]

[5] = target: T3, human ZnT8 (endogenous, in EndoC-βH1 …); test: cell-based or functional assay
[6] = target: T3, human ZnT8 (endogenous, in EndoC-βH1 …); test: imaging quantification, live EndoC-βH1 cells, 37 °C (surface binding and uptake)
Procedure: (§2) For intracellular IF labeling, live cells were washed with a high glucose (20 mM) Krebs buffer, fixed using a flowcytometry fixation buffer for 20 min at RT, washed again using PBS, permeabilized with flowcytometry permeabilization buffer for 20 min at RT, blocked with PBS plus 5% BSA for 30 min, and then exposed to mAb43 (1:1000), mAb20 (1:1000), anti-CD71 (1:200) or anti-Na+/K+ ATPase (1:200) antibody for 2 hr at room temperature. Secondary antibody immunolabeling, DAPI counterstain and immunofluorescence imaging were performed using the same procedure as above. For experiments with wild-type INS-1E cells or ZnT8-KO INS-1E cells (13), cells were grown in RMPI 1640 medium supplied with 10% (v/v) fetal bovine serum (FBS), 100 units/ml penicillin, 100 μg/ml streptomycin, 10 mM HEPES, 2 mM glutamine, 1 mM sodium pyruvate and 50 μM β-ME. Immunofluorescence labeling and imaging followed the same procedure as above.
(§3) To track cell-surface capture of mAb43 and the ensuing ZnT8-mediated mAb43 endocytosis, a fluorescent A647 secondary antibody to label mAb20 and mAb43, and a CellMask green stain were used to demarcate the cell boundary. Live EndoC-βH1 cells were monitored for antibody surface binding and internalization. mAb43-A647 was rapidly internalized at 37° C. whereas mAb20-A647 exposure yielded no detectable signal (FIG. 5A). […]

[7] = target: T3, human ZnT8 (endogenous, in EndoC-βH1 …); test: imaging quantification, live EndoC-βH1 cells, 8 °C (cell surface binding)
Procedure: as §2, §3

[8] = target: T2, mouse ZnT8 (endogenous, in mouse …); test: immunofluorescence of dispersed, fixed and permeabilized mouse islet cells
[9] = target: T1, human ZnT8-His (full-length ZnT8, …); test: ELISA titrations
[10] = target: T4, rat ZnT8 (endogenous, in INS-1E cells); test: immunofluorescence of live INS-1E cells; labeling abolished in ZnT8-knockout INS-1E cells

Kd [1] | EC50 (read off the curve) [2] | EC50 (read off the curve) [3] | binding result [4] | net mAb43-A647 uptake (difference in IF signals between 37 °C and 8 °C), fold increase by glucose stimulation (20 against 2 mM) [5] | fold increase of total mAb43-A647 IF-labeling by glucose stimulation (20 mM against 2 mM) at 37 °C [6] | fold increase of total mAb43-A647 IF-labeling by glucose stimulation (20 mM against 2 mM) at 8 °C [7] | binding result [8] | fold increase of mAb43 reactivity, ZnT8 in proteoliposomes against detergent-solubilized ZnT8 [9] | binding result [10] | Binder
0.57 nM | 0.7 nM | ~2 nM |  |  |  |  |  |  |  | mAb20 (antibody, mouse IgG1, kappa, V domains shown, Validated anti-CTD control antibody; also called anti-CTD mAb20; mAb20-A647 (mAb20 labeled with a fluorescent A647 secondary antibody)) VH: QIQLVQSGPELKKPGETVKISCKASGYIFTNYPMHWVKQAPGKGLKWMGWINTYSGVPTHADDFKGRFAFSLETSANSAFLQINNLKNEDTATYFCTRSRITPTGGYAMDYWGQGTSVTVSS VL: DVVMTQTPLSLPVSLGDQASISCRSSQSLVHSNGNTYLHWYLQKPGQSPNLLISKVSNRFSGVPERFSGSGSGTDFTLKISRVEAEDLGVYFCSQNTHVPWTFGGGTKLEIKR
 |  |  | no binding |  |  |  |  |  |  | chimeric mAb20 (mouse/human) (antibody, V domains shown, also called mouse/human chimeric mAb20) VH: QIQLVQSGPELKKPGETVKISCKASGYIFTNYPMHWVKQAPGKGLKWMGWINTYSGVPTHADDFKGRFAFSLETSANSAFLQINNLKNEDTATYFCTRSRITPTGGYAMDYWGQGTSVTVSS VL: DVVMTQTPLSLPVSLGDQASISCRSSQSLVHSNGNTYLHWYLQKPGQSPNLLISKVSNRFSGVPERFSGSGSGTDFTLKISRVEAEDLGVYFCSQNTHVPWTFGGGTKLEIK
0.42 nM |  | ~2 nM |  | 30.9 fold | 22.1 fold | 15 fold | binds | 6.29 fold | binds | mAb43 (antibody, V domains shown, Hybridoma monoclonal antibody from a ZnT8-proteoliposome-immunized NOD mouse; also called mouse mAb43; anti-TMD mAb) VH: EVQLQQSGPELVKPGASVKIACKASGYTFTGYYMKWVKQSLGKSLEWIGDINPNNGGTNYNQHFKGKATLTVDESSSTAYMELRSLTSEDSAVYYCARGVDWIFAFWGQGTLVTVSP VL: SIVMTQTPKFLPVSAGDRVTMTCKASQSVGNKVAWYQQKPGQSPKLLIYYATNRYTGVPDRFTGSGSGTDFTFTISSVQVEDLAVYFCQQHYSSPWTFGGGTKLEIK
